Legend:
[1] = target: T1, TRC-1 (p21SNF1/JunB heteromultimer) (Homo sapiens) (UniProt Q9NR55+P17275); assay: competition; conditions: vs 12.5-fold for s2
T1 sequence 1: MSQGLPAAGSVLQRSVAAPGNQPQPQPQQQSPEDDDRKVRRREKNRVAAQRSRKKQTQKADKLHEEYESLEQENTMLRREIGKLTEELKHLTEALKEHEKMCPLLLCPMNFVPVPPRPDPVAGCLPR
T1 sequence 2: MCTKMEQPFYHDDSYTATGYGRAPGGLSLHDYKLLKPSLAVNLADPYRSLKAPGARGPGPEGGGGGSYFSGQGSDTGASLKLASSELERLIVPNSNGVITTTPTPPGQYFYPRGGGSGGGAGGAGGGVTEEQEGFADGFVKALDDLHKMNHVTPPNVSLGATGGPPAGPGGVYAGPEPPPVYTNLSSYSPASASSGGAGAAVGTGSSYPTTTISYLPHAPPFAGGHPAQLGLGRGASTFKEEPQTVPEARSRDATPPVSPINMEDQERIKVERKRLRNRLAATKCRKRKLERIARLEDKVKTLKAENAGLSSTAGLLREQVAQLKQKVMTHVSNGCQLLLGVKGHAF

[2] = target: Tax-response complex-1 (TRC-1), purified from SLB-I nuclear extract (human) (UniProt P17275)
[3] = target: T1, TRC-1 (p21SNF1/JunB heteromultimer) (Homo sapiens); assay: EMSA; conditions: self-competition; abolished at 100-fold

| Substance | binding signal (fold excess for ~55% competition) [1] | further results |
| --- | --- | --- |
| HTLV-1 LTR 21-bp repeat site3 (s3) | 50 |  |
| HTLV-1 Tax protein, expressed in bacteria as a His6 fusion at its carboxy terminus (from UniProt P03409) |  | binding of purified TRC-1 to site2 probe in EMSA, phosphorimage analysis [2]: 2.5 to 6.5 fold |
| HTLV-1 LTR 21-bp repeat site1 (s1) | 100 |  |
| HTLV-1 LTR 21-bp repeat site2 (s2) |  | binding signal (% competition at 12.5-fold excess) [3]: 55 |

From patent US5693759
